Reference: article PMC10140165, “Cryo-EM reveals the membrane-binding phenomenon of EspB, a virulence factor of the mycobacterial type VII secretion system” (The Journal of Biological Chemistry, 2023)
Several values for one entry are separate records, joined by “and”; a condition that tells them apart may be missing. Equal values may be shown once.

Molecular target: the molecule itself
Experiment: cryo-EM 2D class averages

B1: EspB_(1–332) (domain or fragment)
chain: MTQSQTVTVDQQEILNRANEVEAPMADPPTDVPITPCELTAAKNAAQQLVLSADNMREYLAAGAKERQRLATSLRNAAKAYGEVDEEAATALDNDGEGTVQAESAGAVGGDSSAELTDTPRVATAGEPNFMDLKEAARKLETGDQGASLAHFADGWNTFNLTLQGDVKRFRGFDNWEGDAATACEASLDQQRQWILHMAKLSAAMAKQAQYVAQLHVWARREHPTYEDIVGLERLYAENPSARDQILPVYAEYQQRSEKVLTEYNNKAALEPVNPPKPPPAIKIDPPPPPQEQGLIPGFLMPPSDGSGVTPGTGMPAAPMVPPTGSPGGGLP
With B1 the “stoichiometry N” value was 7 and 6.
